# Measured values reported in IntAct's records for PubMed 16628218.
# B1: Beta-chimaerin (Homo sapiens), P52757 (parent)
# chain: MAASSNSSLSGSSVSSDAEEYQPPIWKSYLYQLQQEAPRPKRIICPREVENRPKYYGREFHGIISREQADELLGGVEGAYILRESQRQPGCYTLALRFGNQTLNYRLFHDGKHFVGEKRFESIHDLVTDGLITLYIETKAAEYISKMTTNPIYEHIGYATLLREKVSRRLSRSKNEPRKTNVTHEEHTAVEKISSLVRRAALTHNDNHFNYEKTHNFKVHTFRGPHWCEYCANFMWGLIAQGVRCSDCGLNVHKQCSKHVPNDCQPDLKRIKKVYCCDLTTLVKAHNTQRPMVVDICIREIEARGLKSEGLYRVSGFTEHIEDVKMAFDRDGEKADISANVYPDINIITGALKLYFRDLPIPVITYDTYSKFIDAAKISNADERLEAVHEVLMLLPPAHYETLRYLMIHLKKVTMNEKDNFMNAENLGIVFGPTLMRPPEDSTLTTLHDMRYQKLIVQILIENEDVLF
# Variants of: B1
# Settings: with rac1_human RAC1, P63000
row,Variant,effect of a mutation on the interaction
1,Q32A,increasing interaction
2,C264A,disrupting interaction
